Results on one molecule are retold here after publication PMC2680606 (Biochemistry, 2009).

This test concerns the target Myc-UbcM2-His6 (mouse, UniProt P52483 1-207). Briefly: pull-down.

Sequence of Myc-UbcM2-His6 (P52483 whole entry): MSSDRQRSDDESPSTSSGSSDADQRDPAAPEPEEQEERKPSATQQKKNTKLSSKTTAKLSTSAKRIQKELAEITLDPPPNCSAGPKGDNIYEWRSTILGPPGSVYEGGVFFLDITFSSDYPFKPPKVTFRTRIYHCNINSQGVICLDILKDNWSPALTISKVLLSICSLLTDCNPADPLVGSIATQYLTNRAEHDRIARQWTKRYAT

B1: ^35S-RCBTB1 fragment: BTB domain and C-terminal 87 residues (domain or fragment, human, UniProt Q8NDN9 360-531, looked up)
chain: LKKEFDSPETADLKFRIDGKYIHVHKAVLKIRCEHFRSMFQSYWNEDMKEVIEIDQFSYPVYRAFLQYLYTDTVDLPPEDAIGLLDLATSYCENRLKKLCQHIIKRGITVENAFSLFSAAVRYDAEDLEEFCFKFCINHLTEVTQTAAFWQMDGPLLKEFIAKASKCGAFKN
modifications: 35S-labelled methionine and cysteine
Regarding B1, the “fold binding against full-length RCBTB1” value came to 2 fold.
